Data reported in US20140302027A1, “METHODS OF TREATING PERIODONTAL INFLAMMATION AND PERIODONTAL BONE LOSS” (United States of America as Represented by the Secretary, …, priority 2011, published 2014).
Entries after “also recorded” stand apart in the source; their conditions may differ.

How the values were obtained:
[1] = test system: inflammatory mediators in the gingiva of aged mice; assay: qPCR of gingival mRNA in aged mice after local administration of soluble Del-1; format: in vivo, C57BL/6 mice; settings: 12 h
Description: (§1) Ten 18-month-old C57BL/6 mice were microinjected in the gingiva with soluble recombinant mouse Del-1 (kindly provided by Valentis, Inc.)^4 and another ten mice with BSA control. Specifically, Del-1 or BSA (1 μg in 1-μl volume) were microinjected through a 28.5-gauge MicroFine needle (BD) into the palatal gingiva between the first and the second molar teeth, on both sides of the maxilla. Half of the Del-1 or BSAtreated mice were additionally orally inoculated with P. gingivalis ATCC 33277 (10^9 CFU) in 2% carboxymethylcellulose vehicle and the other half were orally given vehicle alone. All mice were sacrificed 12 h later. Maxillae were harvested and one side was stored in 4% paraformaldehyde for immunohistochemistry (see below), while the other side was used to dissect interdental gingiva which were placed into RNAlater solution (Ambion) for qPCR (see below). To determine whether IL-17 regulates Del-1 expression, a neutralizing anti-IL-17A mAb (clone M210, rat IgG2a; kindly provided by Amgen) was microinjected into the palatal gingiva (1 μg) as described above. Purified azide-free rat IgG2a (Biolegend) served as control. qPCR was used to determine […] in dissected gingiva.
Total RNA was extracted from excised gingival tissue or cultured cells using the PerfectPure RNA cell kit (5 Prime, Fisher) and quantified by spectrometry at 260 and 280 nm. The RNA was reverse-transcribed using the High-Capacity cDNA Archive kit (Applied Biosystems) and qPCR with cDNA was performed using the ABI 7500 Fast System, according to the manufacturer's protocol (Applied Biosystems). TaqMan probes, sense primers, and antisense primers for qPCR of genes investigated in this paper were purchased from Applied Biosystems.

[2] = test system: periodontal inflammation in old mice; assay: Immunohistochemistry of interdental gingiva of old mice microinjected with Del-1 or BSA; format: in vivo, C57BL/6 mice
Description: FIG. 24. Del-1 inhibits IL-17 and periodontal inflammation in old mice. Eighteen-month-old C57BL/6 mice were microinjected in the gingiva with BSA (control) or Del-1, as indicated. In addition, the mice were orally administered P. gingivalis in 2% carboxymethylcellulose vehicle (a, b, c; lower rows) or vehicle control (a, b, c; upper rows) and were sacrificed 12 h later. Sagittal sections of interdental gingiva were stained for the neutrophil marker Ly6G (a), IL-17A (b), or TNF (c). Shown are typical fluorescent confocal images (left) and their overlays with corresponding DIC images (right). (d) The fluorescence intensities of these and additional representative images from independent mice were quantified using ImageJ analysis; data were expressed as % intensity of the Del-1-treated groups relative to the BSA-treated controls, the value of which was set to 100% (dashed line). ‘Induced inflammation’ refers to the groups inoculated with P. gingivalis. Data are means±SD (n=5 mice per group) from one of two independent experiments yielding similar results. **P<0.01 compared to BSA-treated controls.
as §1
Maxillae with intact surrounding tissue were fixed in 4% paraformaldehyde, decalcified in Immunocal solution (Decal) for 15 days, and embedded in OCT compound. Serial mesio-distal sections (7- to 8-μm thick) parallel to the long axis of the teeth (sagittal) were stained with monoclonal antibodies to mouse Ly6G (RB6-8C5, FITC-conjugate; LifeSpan BioSciences), mouse CD4 (GK1.5, FITC- or PE-conjugate; LifeSpan), mouse γδ T-cell receptor (GL3, FITC-conjugate; LifeSpan Biosciences) or with polyclonal antibodies to human/mouse Del-1 (ProteinTech), human/mouse IL-17A (Santa Cruz Biotech), human/mouse TNF (Abcam), human/mouse RANKL (Santa Cruz), and mouse CD31 (LifeSpan). Where necessary, staining involved the use of a secondary reagent (AlexaFluor594-conjugated goat anti-rabbit IgG; Molecular Probes). The specificity of staining was confirmed by using appropriate FITC-conjugated isotype controls or normal rabbit IgG followed by AlexaFluor594-goat anti-rabbit IgG. Images were captured using a laser-scanning confocal microscope (Olympus FV1000). Fluorescence intensity was quantified using the Image J software (NIH; http://rsb.info.nih.gov/ij).

[3] = test system: WT neutrophils; assay: Cytokine/chemokine release by isolated neutrophils stimulated with LPS plus C5a; format: cell-based, mouse; settings: soluble Del-1 10 μg/ml, LPS (100 ng/ml) plus C5a (10 nM), 4 h
Description: FIG. 27. Effects of Del-1 deficiency or Del-1 on neutrophil function. (a) Migration of neutrophils isolated from wild-type (WT) or Edil3^−/− mice was tested in a transwell system. Chemokinesis (in the absence of a chemokine in the bottom well) or chemotaxis to CXCL2 (10 ng/ml) in the bottom well was assessed after 60 min. The migration of WT neutrophils in the absence of chemokine was set as the 100% control (dashed line) and the data were expressed relative to this value. (b) Neutrophils isolated from WT or Edil3^−/− mice were stimulated or not for 4 h with LPS (100 ng/ml) plus C5a (10 nM) and release of the indicated cytokines or chemokines in the culture supernatants was determined by ELISA. (c) WT neutrophils, in the presence or absence of soluble Del-1 (10 μg/ml), were stimulated as above and assayed for release of the indicated cytokines or chemokines. Data are means±SD (n=3 sets of neutrophils), from one of two independent sets of experiments yielding similar results.
Mouse neutrophils were obtained by harvesting the bone marrow (Ley (2007)). Briefly, bone marrow cells, obtained after flushing tibias and femurs with RPMI 1640 containing 10% FBS, were depleted of tissue debris and erythrocytes and were resuspended in 45% Percoll. […] Neutrophil purity was routinely >95%, as determined by FACS after staining for Ly6G, F4/80, and CD3.

[4] = target: T1, LFA-1 (Mus musculus, UniProt P24063); settings: at equimolar amounts; cited from earlier work
T1 construct: host or cells: leukocytes (endogenous LFA-1)

[5] = test system: mouse neutrophils; settings: cited from earlier work
[6] = 18-month-old mice, local gingival microinjection 1 μg, compared to BSA control

T1 sequence (P24063 24-1162): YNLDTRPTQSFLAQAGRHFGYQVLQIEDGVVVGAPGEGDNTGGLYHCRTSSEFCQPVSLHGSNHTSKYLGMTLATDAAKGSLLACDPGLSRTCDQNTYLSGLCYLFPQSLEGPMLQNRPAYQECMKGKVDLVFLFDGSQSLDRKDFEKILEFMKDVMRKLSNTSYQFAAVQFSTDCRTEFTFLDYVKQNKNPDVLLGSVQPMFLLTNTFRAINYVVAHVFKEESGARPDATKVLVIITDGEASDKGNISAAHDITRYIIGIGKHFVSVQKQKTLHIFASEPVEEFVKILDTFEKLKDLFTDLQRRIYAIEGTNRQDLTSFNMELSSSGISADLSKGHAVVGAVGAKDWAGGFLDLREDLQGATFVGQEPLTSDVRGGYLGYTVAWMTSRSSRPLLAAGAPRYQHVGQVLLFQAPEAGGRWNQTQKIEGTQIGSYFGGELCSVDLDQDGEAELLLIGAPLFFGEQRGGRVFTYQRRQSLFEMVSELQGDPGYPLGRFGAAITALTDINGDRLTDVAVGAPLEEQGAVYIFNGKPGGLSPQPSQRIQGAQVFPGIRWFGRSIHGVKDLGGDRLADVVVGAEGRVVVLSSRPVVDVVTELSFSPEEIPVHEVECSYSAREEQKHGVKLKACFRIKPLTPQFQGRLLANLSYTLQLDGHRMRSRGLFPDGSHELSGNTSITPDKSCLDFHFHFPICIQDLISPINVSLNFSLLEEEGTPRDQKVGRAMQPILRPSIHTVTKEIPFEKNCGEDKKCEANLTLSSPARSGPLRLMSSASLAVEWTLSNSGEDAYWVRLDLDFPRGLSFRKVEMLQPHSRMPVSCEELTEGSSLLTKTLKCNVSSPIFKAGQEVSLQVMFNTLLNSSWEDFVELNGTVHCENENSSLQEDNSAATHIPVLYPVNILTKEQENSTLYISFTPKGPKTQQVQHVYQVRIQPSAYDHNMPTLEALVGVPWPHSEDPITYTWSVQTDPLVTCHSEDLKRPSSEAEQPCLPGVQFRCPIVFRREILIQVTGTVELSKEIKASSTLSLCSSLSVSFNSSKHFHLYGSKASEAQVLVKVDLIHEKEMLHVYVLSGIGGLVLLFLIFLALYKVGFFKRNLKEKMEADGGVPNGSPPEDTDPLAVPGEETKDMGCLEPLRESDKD
T1 sequence (P11835 24-771 partner): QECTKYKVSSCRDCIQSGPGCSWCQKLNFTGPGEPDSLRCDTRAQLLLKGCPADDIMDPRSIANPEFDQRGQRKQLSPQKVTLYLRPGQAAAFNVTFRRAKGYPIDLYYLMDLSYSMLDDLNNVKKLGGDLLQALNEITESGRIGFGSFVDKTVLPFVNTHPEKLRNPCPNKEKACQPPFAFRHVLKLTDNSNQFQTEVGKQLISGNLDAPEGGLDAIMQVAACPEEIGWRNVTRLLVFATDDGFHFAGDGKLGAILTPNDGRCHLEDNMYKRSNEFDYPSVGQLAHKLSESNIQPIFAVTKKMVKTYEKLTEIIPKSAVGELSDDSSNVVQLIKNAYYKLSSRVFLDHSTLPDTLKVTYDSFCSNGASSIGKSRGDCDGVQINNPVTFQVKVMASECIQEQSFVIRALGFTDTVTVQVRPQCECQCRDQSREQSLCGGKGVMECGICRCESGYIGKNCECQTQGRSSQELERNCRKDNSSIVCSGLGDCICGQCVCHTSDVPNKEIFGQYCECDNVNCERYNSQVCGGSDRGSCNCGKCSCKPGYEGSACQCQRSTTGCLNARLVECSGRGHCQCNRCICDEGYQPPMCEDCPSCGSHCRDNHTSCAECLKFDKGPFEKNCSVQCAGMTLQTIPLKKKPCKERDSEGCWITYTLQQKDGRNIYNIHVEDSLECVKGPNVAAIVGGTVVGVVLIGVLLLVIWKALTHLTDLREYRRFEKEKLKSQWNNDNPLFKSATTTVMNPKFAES

B1: Del-1: soluble recombinant mouse Del-1 (provided by Valentis, Inc.); endothelial cell-expressed 52-kDa glycoprotein (protein)
chain: DICDPNPCENGGICLPGLADGSFSCECPDGFTDPNCSSVVEVASDEEEPTSAGPCTPNPCHNGGTCEISEAYRGDTFIGYVCKCPRGFNGIHCQHNINECEVEPCKNGGICTDLVANYSCECPGEFMGRNCQYKCSGPLGIEGGIISNQQITASSTHRALFGLQKWYPYYARLNKKGLINAWTAAENDRWPWIQINLQRKMRVTGVITQGAKRIGSPEYIKSYKIAYSNDGKTWAMYKVKGTNEDMVFRGNIDNNTPYANSFTPPIKAQYVRLYPQVCRRHCTLRMELLGCELSGCSEPLGMKSGHIQDYQITASSIFRTLNMDMFTWEPRKARLDKQGKVNAWTSGHNDQSQWLQVDLLVPTKVTGIITQGAKDFGHVQFVGSYKLAYSNDGEHWTVYQDEKQRKDKVFQGNFDNDTHRKNVIDPPIYARHIRILPWSWYGRITLRSELLGCTEEE
- C3aR mRNA, Fold change vs. Del-1-untreated controls ([1]; CMC only): 0.49 Fold change
- C5aR mRNA, Fold change vs. Del-1-untreated controls ([1]; CMC only): 0.50 Fold change
- CCL2 mRNA, Fold change vs. Del-1-untreated controls ([1]; CMC only): 0.48 Fold change
- CCL3 mRNA, Fold change vs. Del-1-untreated controls ([1]; CMC only): 1.02 Fold change
- CCL20 mRNA, Fold change vs. Del-1-untreated controls ([1]; CMC only): 0.24 Fold change
- CCR2 mRNA, Fold change vs. Del-1-untreated controls ([1]; CMC only): 0.26 Fold change
- CCR6 mRNA, Fold change vs. Del-1-untreated controls ([1]; CMC only): 0.25 Fold change
- CD40 mRNA, Fold change vs. Del-1-untreated controls ([1]; CMC only): 0.24 Fold change
- CD80 mRNA, Fold change vs. Del-1-untreated controls ([1]; CMC only): 0.25 Fold change
- CD86 mRNA, Fold change vs. Del-1-untreated controls ([1]; CMC only): 0.50 Fold change
- CXCL10 mRNA, Fold change vs. Del-1-untreated controls ([1]; CMC only): 0.25 Fold change
- CXCR4 mRNA, Fold change vs. Del-1-untreated controls ([1]; CMC only): 0.50 Fold change
- G-CSF mRNA, Fold change vs. Del-1-untreated controls ([1]; CMC only): 0.12 Fold change
- IL-1 mRNA, Fold change vs. Del-1-untreated controls ([1]; CMC only): 0.50 Fold change
- IL-6 mRNA, Fold change vs. Del-1-untreated controls ([1]; CMC only): 0.25 Fold change
- IL-17 mRNA, Fold change vs. Del-1-untreated controls ([1]; CMC only): 0.19 Fold change
- RANKL mRNA, Fold change vs. Del-1-untreated controls ([1]; CMC only): 0.49 Fold change
- TLR1 mRNA, Fold change vs. Del-1-untreated controls ([1]; CMC only): 0.24 Fold change
- TLR2 mRNA, Fold change vs. Del-1-untreated controls ([1]; CMC only): 0.26 Fold change
- TLR4 mRNA, Fold change vs. Del-1-untreated controls ([1]; CMC only): 0.25 Fold change
- TLR5 mRNA, Fold change vs. Del-1-untreated controls ([1]; CMC only): 0.51 Fold change
- TLR6 mRNA, Fold change vs. Del-1-untreated controls ([1]; CMC only): 0.27 Fold change
- TLR9 mRNA, Fold change vs. Del-1-untreated controls ([1]; CMC only): 0.25 Fold change
- TNF mRNA, Fold change vs. Del-1-untreated controls ([1]; CMC only): 0.50 Fold change
- TREM-1 mRNA, Fold change vs. Del-1-untreated controls ([1]; CMC only): 0.49 Fold change
- C3aR mRNA, Fold change vs. Del-1-untreated controls ([1]; Pg (P. gingivalis inoculated)): 0.49 Fold change
- C5aR mRNA, Fold change vs. Del-1-untreated controls ([1]; Pg (P. gingivalis inoculated)): 0.25 Fold change
- CCL2 mRNA, Fold change vs. Del-1-untreated controls ([1]; Pg (P. gingivalis inoculated)): 0.49 Fold change
- CCL3 mRNA, Fold change vs. Del-1-untreated controls ([1]; Pg (P. gingivalis inoculated)): 0.51 Fold change
- CCL20 mRNA, Fold change vs. Del-1-untreated controls ([1]; Pg (P. gingivalis inoculated)): 0.49 Fold change
- CCR2 mRNA, Fold change vs. Del-1-untreated controls ([1]; Pg (P. gingivalis inoculated)): 0.12 Fold change
- CCR6 mRNA, Fold change vs. Del-1-untreated controls ([1]; Pg (P. gingivalis inoculated)): 0.13 Fold change
- CD40 mRNA, Fold change vs. Del-1-untreated controls ([1]; Pg (P. gingivalis inoculated)): 0.25 Fold change
- CD80 mRNA, Fold change vs. Del-1-untreated controls ([1]; Pg (P. gingivalis inoculated)): 0.25 Fold change
- CD86 mRNA, Fold change vs. Del-1-untreated controls ([1]; Pg (P. gingivalis inoculated)): 0.49 Fold change
- CXCL10 mRNA, Fold change vs. Del-1-untreated controls ([1]; Pg (P. gingivalis inoculated)): 0.26 Fold change
- CXCR4 mRNA, Fold change vs. Del-1-untreated controls ([1]; Pg (P. gingivalis inoculated)): 0.24 Fold change
- G-CSF mRNA, Fold change vs. Del-1-untreated controls ([1]; Pg (P. gingivalis inoculated)): 0.25 Fold change
- IL-1 mRNA, Fold change vs. Del-1-untreated controls ([1]; Pg (P. gingivalis inoculated)): 0.25 Fold change
- IL-6 mRNA, Fold change vs. Del-1-untreated controls ([1]; Pg (P. gingivalis inoculated)): 0.24 Fold change
- IL-17 mRNA, Fold change vs. Del-1-untreated controls ([1]; Pg (P. gingivalis inoculated)): 0.25 Fold change
- RANKL mRNA, Fold change vs. Del-1-untreated controls ([1]; Pg (P. gingivalis inoculated)): 0.25 Fold change
- TLR1 mRNA, Fold change vs. Del-1-untreated controls ([1]; Pg (P. gingivalis inoculated)): 0.24 Fold change
- TLR2 mRNA, Fold change vs. Del-1-untreated controls ([1]; Pg (P. gingivalis inoculated)): 0.25 Fold change
- TLR4 mRNA, Fold change vs. Del-1-untreated controls ([1]; Pg (P. gingivalis inoculated)): 0.12 Fold change
- TLR5 mRNA, Fold change vs. Del-1-untreated controls ([1]; Pg (P. gingivalis inoculated)): 0.51 Fold change
- TLR6 mRNA, Fold change vs. Del-1-untreated controls ([1]; Pg (P. gingivalis inoculated)): 0.26 Fold change
- TLR9 mRNA, Fold change vs. Del-1-untreated controls ([1]; Pg (P. gingivalis inoculated)): 0.51 Fold change
- TNF mRNA, Fold change vs. Del-1-untreated controls ([1]; Pg (P. gingivalis inoculated)): 0.51 Fold change
- TREM-1 mRNA, Fold change vs. Del-1-untreated controls ([1]; Pg (P. gingivalis inoculated)): 0.24 Fold change
- expression of IL-17 in the periodontium [2, 6]: diminished
- expression of TNF in the periodontium [2, 6]: diminished
- neutrophil infiltration in the periodontium (Ly6G staining) [2, 6]: reduced
- inflammation induced by oral inoculation with Porphyromonas gingivalis ([2]; old mice, P. gingivalis inoculated): suppressed
- constitutive (naturally occurring) inflammation ([2]; old mice, vehicle only): suppressed
- cytokine and chemokine induction (TNF, CXCL1 release) by neutrophils [3]: did not exert a direct effect; also recorded: No significant differences
- competition with ICAM-1 for binding to LFA-1 on leukocytes [4]: outcompetes ICAM-1
- LFA-1-dependent adhesion of mouse neutrophils to mouse endothelial cells [5]: competitively inhibits
